# Experimental data taken from patent US20180009871A1 (INTARCIA THERAPEUTICS, published 2018).
# Where no end group is shown, it is not given here. [ ]: non-standard residue; d: D form. Formula III = not defined here; Formula II = not defined here; Aib = CC(C)(N)C(=O)O
# B1: Compound A100 (peptide)
# peptide: YSHGTFTSDYSKYLD[Aib]KRAQEFV[Aib]WLEDE-OH
# modifications: N-terminus assumed
# SMILES: CC(C)C[C@H](NC(=O)[C@H](Cc1ccc(O)cc1)NC(=O)[C@H](CCCCN)NC(=O)[C@H](CO)NC(=O)[C@H](Cc1ccc(O)cc1)NC(=O)[C@H](CC(=O)O)NC(=O)[C@H](CO)NC(=O)[C@@H](NC(=O)[C@H](Cc1ccccc1)NC(=O)[C@@H](NC(=O)CNC(=O)[C@H](Cc1c[nH]cn1)NC(=O)[C@H](CO)NC(=O)[C@@H](N)Cc1ccc(O)cc1)[C@@H](C)O)[C@@H](C)O)C(=O)N[C@@H](CC(=O)O)C(=O)NC(C)(C)C(=O)N[C@@H](CCCCN)C(=O)N[C@@H](CCCNC(=N)N)C(=O)N[C@@H](C)C(=O)N[C@@H](CCC(N)=O)C(=O)N[C@@H](CCC(=O)O)C(=O)N[C@@H](Cc1ccccc1)C(=O)N[C@H](C(=O)NC(C)(C)C(=O)N[C@@H](Cc1c[nH]c2ccccc12)C(=O)N[C@@H](CC(C)C)C(=O)N[C@@H](CCC(=O)O)C(=O)N[C@@H](CC(=O)O)C(=O)N[C@@H](CCC(=O)O)C(=O)O)C(C)C
# B2: Compound A99 (peptide)
# peptide: YSHGTFTSDYSKYLD[Aib]KRAQEFV[Aib]WLEDEPSSGAPPPS-OH
# modifications: N-terminus assumed
# SMILES: CC(C)C[C@H](NC(=O)[C@H](Cc1ccc(O)cc1)NC(=O)[C@H](CCCCN)NC(=O)[C@H](CO)NC(=O)[C@H](Cc1ccc(O)cc1)NC(=O)[C@H](CC(=O)O)NC(=O)[C@H](CO)NC(=O)[C@@H](NC(=O)[C@H](Cc1ccccc1)NC(=O)[C@@H](NC(=O)CNC(=O)[C@H](Cc1c[nH]cn1)NC(=O)[C@H](CO)NC(=O)[C@@H](N)Cc1ccc(O)cc1)[C@@H](C)O)[C@@H](C)O)C(=O)N[C@@H](CC(=O)O)C(=O)NC(C)(C)C(=O)N[C@@H](CCCCN)C(=O)N[C@@H](CCCNC(=N)N)C(=O)N[C@@H](C)C(=O)N[C@@H](CCC(N)=O)C(=O)N[C@@H](CCC(=O)O)C(=O)N[C@@H](Cc1ccccc1)C(=O)N[C@H](C(=O)NC(C)(C)C(=O)N[C@@H](Cc1c[nH]c2ccccc12)C(=O)N[C@@H](CC(C)C)C(=O)N[C@@H](CCC(=O)O)C(=O)N[C@@H](CC(=O)O)C(=O)N[C@@H](CCC(=O)O)C(=O)N1CCC[C@H]1C(=O)N[C@@H](CO)C(=O)N[C@@H](CO)C(=O)NCC(=O)N[C@@H](C)C(=O)N1CCC[C@H]1C(=O)N1CCC[C@H]1C(=O)N1CCC[C@H]1C(=O)N[C@@H](CO)C(=O)O)C(C)C
# What was measured:
# Test in all cases: cell-based or functional assay
# [1] = biological target: human glucagon receptor (GCGR) (human, UniProt P47871 26-477)
# [2] = biological target: T1, human GLP-1 receptor (GLP-1R) (human, UniProt P43220 24-463)
# T1 sequence (P43220 24-463): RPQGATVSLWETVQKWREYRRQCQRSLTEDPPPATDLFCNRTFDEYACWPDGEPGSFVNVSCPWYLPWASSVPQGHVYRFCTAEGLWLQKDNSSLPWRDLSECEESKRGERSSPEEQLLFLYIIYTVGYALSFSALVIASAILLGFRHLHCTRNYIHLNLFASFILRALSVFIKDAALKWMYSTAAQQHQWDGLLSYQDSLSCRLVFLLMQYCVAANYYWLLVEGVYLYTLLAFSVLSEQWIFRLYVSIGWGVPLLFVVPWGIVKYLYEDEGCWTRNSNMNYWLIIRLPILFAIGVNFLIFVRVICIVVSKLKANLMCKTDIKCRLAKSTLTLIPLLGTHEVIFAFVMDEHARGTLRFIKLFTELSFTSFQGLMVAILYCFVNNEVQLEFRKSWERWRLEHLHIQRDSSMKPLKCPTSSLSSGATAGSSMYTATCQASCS
# [3] = biological target: T1, human GLP-1 receptor (GLP-1R); remark: listed apart in the source
Binder,GluR pEC 50 [1] [pEC50],GLP-1R pEC 50 [2] [pEC50],hGLP1 pEC50 (cAMP) [3] [pEC50]
YSQGTFTSDYSKYLDAARAQEFVK(Formula III)WLEDEPKSKSPPPS-NH2 (reading uncertain) [Compound B38],9.6,6,–
WSQGTFTSDYSKYLD[Aib]KRAQEFVK(Formula II)WLEDEPSSGAPPPS-OH (reading uncertain) [Compound B18],10.2,< 6,–
YSHGTFTSDYSKYLDSARAQEFVK(Formula II)WLEDEPSSGAPPPS-NH2 (reading uncertain) [Compound B42],9.7,< 6,–
YSHGTFTSDK(Formula III)SKYLDSARAQEFVKWLEDEPSSGAPPPS-NH2 (reading uncertain) [Compound B48],9.2,< 6,–
YSHGTFTSDYSKYLD[Aib]KRAQEFVIWLEDEPSSK(Formula II)APPPS-OH (reading uncertain) [Compound B25],10.5,< 6,–
YSHGTFTSDYSKYLDSARAQEFVKWLEDEPSSK(Formula III)APPPS-NH2 (reading uncertain) [Compound B45],9.8,< 6,–
WSQGTFTSDK(Formula III)SKYLD[Aib]KRAQEFV[Aib]WLEDEPSSGAPPPS-OH (reading uncertain) [Compound B24],8.2,6.8,–
YSHGTFTSDYSKYLD[Aib]KRAQEFVIWLEDEPSSK(Formula III)APPPS-OH (reading uncertain) [Compound B29],9.8,7,–
YSHGTFTSDYSKYLDK(Formula II)ARAQEFVKWLEDEPSSGAPPPS-NH2 (reading uncertain) [Compound B43],11.1,< 6,–
YSQGTFTSDK(Formula III)SKYLDAARAQEFVKWLEDEPKSKSPPPS-NH2 (reading uncertain) [Compound B40],11.9,7.2,–
YSHGTFTSDYTRLLESKRAQEFVKWLEDEPSSGAPPPS [Compound A98],–,–,< 9
WSQGTFTSDK(Formula II)SKYLD[Aib]KRAQEFV[Aib]WLEDEPSSGAPPPS-OH (reading uncertain) [Compound B20],11.1,6.5,–
YSHGTFTSDYSKYLDK(Formula III)KRAQEFVIWLEDEPSSGAPPPS (reading uncertain) [Compound B31],10.6,7.4,–
YSQGTFTSDK(Formula II)SKYLDAARAQEFVKWLEDEPKSKSPPPS-NH2 (reading uncertain) [Compound B36],11.5,8.1,–
YSQGTFTSDYSKYLDAARAQEFVK(Formula II)WLEDEPKSKSPPPS-NH2 (reading uncertain) [Compound B34],9.8,< 6,–
YSHGTFTSDYSKYLDAARAQEFVKWLEDEPSSGAPPPS [Compound A97],–,–,< 9

Binder,GluR pEC 50 [1] [pEC50],GLP-1R pEC 50 [2] [pEC50],hGLP1 pEC50 (cAMP) [3] [pEC50]
YSQGTFTSDYSKYLDK(Formula II)ARAQEFVKWLEDEPKSKSPPPS-NH2 (reading uncertain) [Compound B35],11.1,6.6,–
YSQGTFTSDYSKYLDAARAQEFVKWLEDEPKSK(Formula III)SPPPS-NH2 (reading uncertain) [Compound B37],10.1,6.2,–
YSHGTFTSDYSKYLDK(Formula II)KRAQEFVIWLEDEPSSGAPPPS (reading uncertain) [Compound B26],11,< 6,–
YSHGTFTSDYSKYLDK(Formula III)ARAQEFVKWLEDEPSSGAPPPS-NH2 (reading uncertain) [Compound B47],10.8,< 6,–
B1,–,–,< 9
YSQGTFTSDYSKYLDAARAQEFVKWLEDEPKSK(Formula II)SPPPS-NH2 (reading uncertain) [Compound B33],10.6,< 6,–
WSQGTFTSDYSKYLDK(Formula II)KRAQEFV[Aib]WLEDEPSSGAPPPS-OH (reading uncertain) [Compound B19],10.6,6.3,–
YSHGTFTSDK(Formula II)SKYLD[Aib]KRAQEFVIWLEDEPSSGAPPPS-OH (reading uncertain) [Compound B27],11.5,6.6,–
YSHGTFTSDYSKYLD[Aib]KRAQK(Formula III)FVIWLEDEPSSGAPPPS-OH (reading uncertain) [Compound B30],9.7,7,–
YSHGTFTSDK(Formula II)SKYLDSARAQEFVKWLEDEPSSGAPPPS-NH2 (reading uncertain) [Compound B44],11.9,7.2,–
YSHGTFTSDYSKYLDSARAQEFVKWLEDEPSSK(Formula II)APPPS-NH2 (reading uncertain) [Compound B41],10.6,< 6,–
B2,–,–,< 9
YSHGTFTSDK(Formula III)SKYLD[Aib]KRAQEFVIWLEDEPSSGAPPPS-OH (reading uncertain) [Compound B32],9.4,7.8,–
WSQGTFTSDYSKYLDK(Formula III)KRAQEFV[Aib]WLEDEPSSGAPPPS-OH (reading uncertain) [Compound B23],9.5,6.5,–
YSQGTFTSDYSKYLDK(Formula III)ARAQEFVKWLEDEPKSKSPPPS-NH2 (reading uncertain) [Compound B39],10.9,6,–
YSHGTFTSDYSKYLDSARAQEFVK(Formula III)WLEDEPSSGAPPPS-NH2 (reading uncertain) [Compound B46],9.5,< 6,–
